Experimental data: patent US20030072752A1 (GENERAL HOSPITAL CORPORATION A MASSACHUSETTS, published 2003)

B1: squamous cell carcinoma-antigen (SCC-A) (other, UniProt P29508 1-390, looked up)
chain: MNSLSEANTKFMFDLFQQFRKSKENNIFYSPISITSALGMVLLGAKDNTAQQIKKVLHFDQVTENTTGKAATYHVDRSGNVHHQFQKLLTEFNKSTDAYELKIANKLFGEKTYLFLQEYLDAIKKFYQTSVESVDFANAPEESRKKINSWVESQTNEKIKNLIPEGNIGSNTTLVLVNAIYFKGQWEKKFNKEDTKEEKFWPNKNTYKSIQMMRQYTSFHFASLEDVQAKVLEIPYKGKDLSMIVLLPNEIDGLQKLEEKLTAEKLMEWTSLQNMRETRVDLHLPRFKVEESYDLKDTLRTMGMVDIFNGDADLSGMTGSRGLVLSGVLHKAFVEVTEEGAEAAAATAVVGFGSSPASTNEEFHCNHPFLFFIRQNKTNSILFYGRFSSP

Experiments:
[1] = biological target: papain (UniProt P00784); assay: enzyme inhibition, Dixon plots at different substrate concentrations (BANA)
[2] = biological target: T1, bovine cathepsin L (bovine, UniProt P25975 118-334, limits assumed); assay: enzyme inhibition (method not restated here)
T1 construct: also called chatepsin L

[3] = biological target: T1, bovine cathepsin L; assay: enzyme inhibition, Dixon plots at different substrate concentrations (Z-Phe-Arg-MCA)
[4] = biological target: T1, bovine cathepsin L; assay: enzyme inhibition (method and origin of the value not stated)

T1 sequence (P25975 118-334 limits assumed): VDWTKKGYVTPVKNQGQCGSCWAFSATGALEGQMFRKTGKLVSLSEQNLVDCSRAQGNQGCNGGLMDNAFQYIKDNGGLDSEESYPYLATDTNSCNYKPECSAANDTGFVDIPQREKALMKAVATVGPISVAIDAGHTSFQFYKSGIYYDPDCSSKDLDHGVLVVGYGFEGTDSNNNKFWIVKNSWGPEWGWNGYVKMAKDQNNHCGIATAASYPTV
papain, sequence (P00784 134-345 limits assumed): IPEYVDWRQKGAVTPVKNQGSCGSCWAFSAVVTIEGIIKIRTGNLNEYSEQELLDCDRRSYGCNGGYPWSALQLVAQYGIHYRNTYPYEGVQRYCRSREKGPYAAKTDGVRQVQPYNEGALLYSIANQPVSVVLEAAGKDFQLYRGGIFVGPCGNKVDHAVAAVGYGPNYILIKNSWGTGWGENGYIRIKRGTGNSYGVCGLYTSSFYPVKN

Row | Molecule | Ki [1] [nM] | Ki [2] [nM] | Ki [3] [nM] | Ki [4] [nM]
1 | psoriastatin preparation (purified from psoriatic scale extract) | 1.68 | 5.9 | 1.9 | –
2 | B1 | – | – | – | 0.067
